Reference: patent US20220251595A1, “ENGINEERED ATRLP23 PATTERN RECOGNITION RECEPTORS AND METHODS OF USE” (priority 2019, published 2022)

system: corn protoplasts; experiment: Calcium burst in transiently transfected corn protoplasts, R-GECO1.2 fluorescence reporter; type: cell-based, Zea mays; conditions: Example 3, FIG. 4; 1 μM PpNLP20; 40 minutes; 384-well
Text: Following ligand (also known as elicitor) binding, PRRs are activated and induce a transient increase of cytosolic Ca^2+ concentration as part of a PTI response. […] In a high-throughput method, the kinetics of PRR-dependent transient variation of cytosolic Ca^2+ concentration can be measured with a fluorimeter or luminometer and in microplate formats of 96 or 384 wells.
Fluorescence was monitored using a fluorimeter equipped with a 100 Hz xenon flash lamp with excitation at 556 nm and emission measured at 585 nm for 100 ms, every 22.6 seconds for 42 minutes.
All of the AtRLP23 constructs have an operably linked 2×35S+Ω promoter construct (SEQ ID NO: 72) and an operably linked rbcS terminator (SEQ ID NO: 73)
Fluorescence was monitored using a fluorimeter equipped with a 100 Hz xenon flash lamp with excitation at 556 nm and emission measured at 585 nm for 30 ms, every 20.2 seconds for 40 minutes. For each fluorescence measurement, the transient change in R-GECO1.2 fluorescence (ΔF) are calculated from background corrected intensity values as (F-Fo), where F represents the average fluorescence intensity of the a batch of protoplasts treated with elicitor, and Fo represents the average fluorescence intensity of the same batch of protoplasts treated with a control solution that lacks the elicitor but is otherwise identical or essentially identical in composition to the solution comprising the elicitor.

Molecule	responsiveness to PpNLP20 treatment compared to AtRLP23-3×FLAG (total transient increase of fluorescence)
AtRLP23+TM-AtBAK1-3×FLAG: AtRLP23 apoplastic, eJM and TM domains, AtBAK1 cytoplasmic domain, 3×FLAG; SEQ ID NO: 37, 38 (protein, Fusion protein) MSKALLHLHFLSLFLLCCVCHSSIFTLNFHFTGIVACRPHQIQAFTKFTNEFDTRGCNNSDTFNGVWCDNSTGAVAVLQLRKCLSGTLKSNSSLFGFHQLRYVDLQNNNLTSSSLPSGFGNLKRLEGLFLSSNGFLGQVPSSFSNLTMLAQLDLSYNKLTGSFPLVRGLRKLIVLDLSYNHFSGTLNPNSSLFELHQLRYLNLAFNNFSSSLPSKFGNLHRLENLILSSNGFSGQVPSTISNLTRLTKLYLDQNKLTSSFPLVQNLTNLYELDLSYNKFFGVIPSSLLTLPFLAHLALRENNLAGSVEVSNSSTSSRLEIMYLGSNHFEGQILEPISKLINLKHLDLSFLNTSYPIDLKLFSSLKSLRSLDLSGNSISSASLSSDSYIPLTLEMLTLRHCDINEFPNILKTLKELVYIDISNNRMKGKIPEWLWSLPLLQSVTLGNNYFTGFQGSAEILVNSSVLLLYLDSNNFEGALPDLPLSIKGFGVASNSFTSEIPLSICNRSSLAAIDLSYNNFTGPIPPCLRNLELVYLRNNNLEGSIPDALCDGASLRTLDVSHNRLTGKLPRSFVNCSSLKFLSVINNRIEDTFPFWLKALPNLQVLTLRSNRFYGPISPPHQGPLGFPELRIFEISDNKFTGSLPPNYFVNWKASSRTMNQDGGLYMVYEEKLFDEGGYGYTDALDLQYKGLHMEQAKALTSYAAIDFSGNRLEGQIPESIGLLKALIAVNISNNAFTGHIPLSMANLENLESLDMSRNQLSGTIPNGLGSISFLAYINVSHNQLTGEIPQGTQITGQSKSSFEGNAGLCGLPLKESCFGTGAPPMYHQKQEDKEEEEEEEEEEEEVLNGRAVAIGYGSGLLLGLAIAQVIASYRRKKPQDHFFDVPAEEDPEVHLGQLKRFSLRELQVASDNFSNKNILGRGGFGKVYKGRLADGTLVAVKRLKEERTQGGELQFQTEVEMISMAVHRNLLRLRGFCMTPTERLLVYPYMANGSVASCLRERPESQPPLDWPKRQRIALGSARGLAYLHDHCDPKIIHRDVKAANILLDEEFEAVVGDFGLAKLMDYKDTHVTTAVRGTIGHIAPEYLSTGKSSEKTDVFGYGVMLLELITGQRAFDLARLANDDDVMLLDWVKGLLKEKKLEALVDVDLQGNYKDEEVEQLIQVALLCTQSSPMERPKMSEVVRMLEGDGLAERWEEWQKEEMFRQDFNYPTHHPAVSGWIIGDSTSQIENEYPSGPRSDYKDHDGDYKDHDLDAAAADYKDDDDK	reduced responsiveness
AtRLP23-AtSOBIR1-3×FLAG: AtRLP23 apoplastic and eJM domains, AtSOBIR1 TM and cytoplasmic domains, 3×FLAG; SEQ ID NO: 29, 30 (protein, Fusion protein) MSKALLHLHFLSLFLLCCVCHSSIFTLNFHFTGIVACRPHQIQAFTKFTNEFDTRGCNNSDTFNGVWCDNSTGAVAVLQLRKCLSGTLKSNSSLFGFHQLRYVDLQNNNLTSSSLPSGFGNLKRLEGLFLSSNGFLGQVPSSFSNLTMLAQLDLSYNKLTGSFPLVRGLRKLIVLDLSYNHFSGTLNPNSSLFELHQLRYLNLAFNNFSSSLPSKFGNLHRLENLILSSNGFSGQVPSTISNLTRLTKLYLDQNKLTSSFPLVQNLTNLYELDLSYNKFFGVIPSSLLTLPFLAHLALRENNLAGSVEVSNSSTSSRLEIMYLGSNHFEGQILEPISKLINLKHLDLSFLNTSYPIDLKLFSSLKSLRSLDLSGNSISSASLSSDSYIPLTLEMLTLRHCDINEFPNILKTLKELVYIDISNNRMKGKIPEWLWSLPLLQSVTLGNNYFTGFQGSAEILVNSSVLLLYLDSNNFEGALPDLPLSIKGFGVASNSFTSEIPLSICNRSSLAAIDLSYNNFTGPIPPCLRNLELVYLRNNNLEGSIPDALCDGASLRTLDVSHNRLTGKLPRSFVNCSSLKFLSVINNRIEDTFPFWLKALPNLQVLTLRSNRFYGPISPPHQGPLGFPELRIFEISDNKFTGSLPPNYFVNWKASSRTMNQDGGLYMVYEEKLFDEGGYGYTDALDLQYKGLHMEQAKALTSYAAIDFSGNRLEGQIPESIGLLKALIAVNISNNAFTGHIPLSMANLENLESLDMSRNQLSGTIPNGLGSISFLAYINVSHNQLTGEIPQGTQITGQSKSSFEGNAGLCGLPLKESCFGTGAPPMYHQKQEDKEEEEEEEEEEEEVLNGRVAAWILGFVVGAIGGTISGFVFSVLFKLIIQAIRGSEKPPGPSIFSPLIKKAEDLAFLENEEALASLEIIGRGGCGEVFKAELPGSNGKIIAVKKVIQPPKDADELTDEDSKFLNKKMRQIRSEINTVGHIRHRNLLPLLAHVSRPECHYLVYEYMEKGSLQDILTDVQAGNQELMWPARHKIALGIAAGLEYLHMDHNPRIIHRDLKPANVLLDDDMEARISDFGLAKAMPDAVTHITTSHVAGTVGYIAPEFYQTHKFTDKCDIYSFGVILGILVIGKLPSDEFFQHTDEMSLIKWMRNIITSENPSLAIDPKLMDQGFDEQMLLVLKIACYCTLDDPKQRPNSKDVRTMLSQIKHSDYKDHDGDYKDHDLDAAAADYKDDDDK	reduced responsiveness
AtRLP23-AtBAK1-3×FLAG: AtRLP23 apoplastic and eJM domains, AtBAK1 TM and cytoplasmic domains, 3×FLAG; SEQ ID NO: 25, 26 (protein, Fusion protein) MSKALLHLHFLSLFLLCCVCHSSIFTLNFHFTGIVACRPHQIQAFTKFTNEFDTRGCNNSDTFNGVWCDNSTGAVAVLQLRKCLSGTLKSNSSLFGFHQLRYVDLQNNNLTSSSLPSGFGNLKRLEGLFLSSNGFLGQVPSSFSNLTMLAQLDLSYNKLTGSFPLVRGLRKLIVLDLSYNHFSGTLNPNSSLFELHQLRYLNLAFNNFSSSLPSKFGNLHRLENLILSSNGFSGQVPSTISNLTRLTKLYLDQNKLTSSFPLVQNLTNLYELDLSYNKFFGVIPSSLLTLPFLAHLALRENNLAGSVEVSNSSTSSRLEIMYLGSNHFEGQILEPISKLINLKHLDLSFLNTSYPIDLKLFSSLKSLRSLDLSGNSISSASLSSDSYIPLTLEMLTLRHCDINEFPNILKTLKELVYIDISNNRMKGKIPEWLWSLPLLQSVTLGNNYFTGFQGSAEILVNSSVLLLYLDSNNFEGALPDLPLSIKGFGVASNSFTSEIPLSICNRSSLAAIDLSYNNFTGPIPPCLRNLELVYLRNNNLEGSIPDALCDGASLRTLDVSHNRLTGKLPRSFVNCSSLKFLSVINNRIEDTFPFWLKALPNLQVLTLRSNRFYGPISPPHQGPLGFPELRIFEISDNKFTGSLPPNYFVNWKASSRTMNQDGGLYMVYEEKLFDEGGYGYTDALDLQYKGLHMEQAKALTSYAAIDFSGNRLEGQIPESIGLLKALIAVNISNNAFTGHIPLSMANLENLESLDMSRNQLSGTIPNGLGSISFLAYINVSHNQLTGEIPQGTQITGQSKSSFEGNAGLCGLPLKESCFGTGAPPMYHQKQEDKEEEEEEEEEEEEVLNGRITGAIAGGVAAGAALLFAVPAIALAWWRRKKPQDHFFDVPAEEDPEVHLGQLKRFSLRELQVASDNFSNKNILGRGGFGKVYKGRLADGTLVAVKRLKEERTQGGELQFQTEVEMISMAVHRNLLRLRGFCMTPTERLLVYPYMANGSVASCLRERPESQPPLDWPKRQRIALGSARGLAYLHDHCDPKIIHRDVKAANILLDEEFEAVVGDFGLAKLMDYKDTHVTTAVRGTIGHIAPEYLSTGKSSEKTDVFGYGVMLLELITGQRAFDLARLANDDDVMLLDWVKGLLKEKKLEALVDVDLQGNYKDEEVEQLIQVALLCTQSSPMERPKMSEVVRMLEGDGLAERWEEWQKEEMFRQDFNYPTHHPAVSGWIIGDSTSQIENEYPSGPRSDYKDHDGDYKDHDLDAAAADYKDDDDK	reduced responsiveness
